{
  "source": "patent US20260078398A1",
  "about": "“PLANTS GENETICALLY ENGINEERED FOR INCREASED WATER USE EFFICIENCY AND CARBON INTAKE AND METHODS FOR MAKING AND USING THEM” (The Regents of the University of California, priority 2022, published 2026)",
  "key": {"[1]": {"target": "T1, His-HT1 (recombinant Arabidopsis HT1 protein kinase, wild type, with His tag)", "T1 chain": "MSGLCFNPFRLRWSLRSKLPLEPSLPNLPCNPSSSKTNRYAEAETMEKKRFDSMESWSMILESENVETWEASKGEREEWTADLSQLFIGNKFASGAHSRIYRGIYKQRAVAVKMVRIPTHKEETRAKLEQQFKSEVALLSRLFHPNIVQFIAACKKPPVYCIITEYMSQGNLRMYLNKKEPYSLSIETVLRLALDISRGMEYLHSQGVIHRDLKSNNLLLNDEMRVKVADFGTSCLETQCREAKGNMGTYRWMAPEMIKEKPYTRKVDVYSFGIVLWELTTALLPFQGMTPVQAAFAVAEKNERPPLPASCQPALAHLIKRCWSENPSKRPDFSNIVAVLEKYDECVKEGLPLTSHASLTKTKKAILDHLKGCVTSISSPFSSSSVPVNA"}, "HT1-G89R": {"target": "T2, HT1-G89R (Arabidopsis, UniProt Q2MHE4 1-390)", "T2 construct": "Recombinant HT1 isoform; No tag is stated for the variant; the wild type in the same pull-down was His-HT1; also called ht1-G89R isoform", "T2 sequence": "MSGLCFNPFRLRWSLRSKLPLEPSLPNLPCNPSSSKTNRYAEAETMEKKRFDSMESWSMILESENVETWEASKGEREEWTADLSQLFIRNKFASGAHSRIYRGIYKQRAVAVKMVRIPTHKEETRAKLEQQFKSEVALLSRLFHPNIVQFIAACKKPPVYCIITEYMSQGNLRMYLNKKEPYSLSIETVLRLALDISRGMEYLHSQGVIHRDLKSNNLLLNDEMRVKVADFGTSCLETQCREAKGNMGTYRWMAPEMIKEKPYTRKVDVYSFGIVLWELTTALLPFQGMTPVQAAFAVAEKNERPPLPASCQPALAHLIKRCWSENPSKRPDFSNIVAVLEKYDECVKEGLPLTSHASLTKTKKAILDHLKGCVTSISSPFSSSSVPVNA", "experiment": "in vitro pull-down with or without NaHCO3 (FIG. 4E, n=3)", "experimental": "FIG. 4E illustrates gel protein separation images showing data where in vitro pull-down assays were performed using recombinant HT1 (wild type, HT1-G89R and HT1-R173Q) proteins;\nFIG. 4. Bicarbonate inactivates HT1 kinase by stabilizing HT1 interaction with MPK4/12. [0265] (A) Recombinant CBC1, HT1 and MPK4 proteins are incubated with or without 20 mM NaHCO₃ for 30 min, and in vitro phosphorylation assays were performed. [0266] (B) CBC1 and HT1 proteins were incubated with or without 20 mM NaHCO₃ or 20 mM NaCl (“−” controls) in the presence or absence of MPK12 protein. [0267] (C) His-HT1 and GST-MPK4 or GST control proteins were used for in vitro pull-down assays with or without 20 mM NaHCO₃. NaHCO₃ or 20 mM NaCl (“−” controls) were supplemented in all buffers throughout the pull-down assay procedures including the washing step. [0268] […] [0269] (E) In vitro pull-down assays were performed using recombinant HT1 (wild type, HT1-G89R and HT1-R173Q) proteins. [0270] (F) In vitro pull-down assays were performed using HT1-R102K isoform. [0271] (G) In vitro pull-down assays were performed using HT1-A109V isoform. [0272] […] [0273] (I) Stomatal conductances were analyzed in leaves of intact Arabidopsis plants [Col-0 (WT), mpk 12, pGC1:MPK12-GFP/mpk12 and pGC1:MPK12 (K70R)-GFP/mpk12]. CO₂ concentration changes were applied as indicated on top (p.p.m.). n=6 experiments, error bars show ±SEM. [0274] […]"}, "HT1-R102K": {"target": "T3, HT1-R102K (Arabidopsis, UniProt Q2MHE4 1-390)", "T3 construct": "Recombinant HT1 isoform; No tag is stated for the variant", "T3 sequence": "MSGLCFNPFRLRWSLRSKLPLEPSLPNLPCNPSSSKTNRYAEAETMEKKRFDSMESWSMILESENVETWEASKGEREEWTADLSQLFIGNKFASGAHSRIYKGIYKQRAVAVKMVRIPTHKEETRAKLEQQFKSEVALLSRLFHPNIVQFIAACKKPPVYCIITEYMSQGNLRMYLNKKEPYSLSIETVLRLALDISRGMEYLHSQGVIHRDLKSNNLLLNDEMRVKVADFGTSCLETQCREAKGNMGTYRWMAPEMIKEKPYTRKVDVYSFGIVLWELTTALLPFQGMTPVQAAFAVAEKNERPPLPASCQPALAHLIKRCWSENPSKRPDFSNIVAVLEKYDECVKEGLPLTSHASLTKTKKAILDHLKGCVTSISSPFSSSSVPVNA", "experiment": "in vitro pull-down with or without NaHCO3 (FIG. 4F, n=3)"}, "HT1-A109V": {"target": "T4, HT1-A109V (Arabidopsis, UniProt Q2MHE4 1-390)", "T4 construct": "Recombinant HT1 isoform; No tag is stated for the variant; also called ht1-A109V isoform", "T4 sequence": "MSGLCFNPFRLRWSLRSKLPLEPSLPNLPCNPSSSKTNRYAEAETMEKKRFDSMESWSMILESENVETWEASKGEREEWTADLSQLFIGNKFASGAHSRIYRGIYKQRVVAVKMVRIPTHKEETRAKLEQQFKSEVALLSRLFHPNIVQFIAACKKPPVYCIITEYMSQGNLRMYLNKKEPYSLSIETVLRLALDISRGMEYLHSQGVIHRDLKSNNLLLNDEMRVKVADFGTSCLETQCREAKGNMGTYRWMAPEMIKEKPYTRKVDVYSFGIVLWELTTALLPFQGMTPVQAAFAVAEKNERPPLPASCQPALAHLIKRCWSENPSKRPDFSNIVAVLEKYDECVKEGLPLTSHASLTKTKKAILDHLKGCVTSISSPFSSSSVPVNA", "experiment": "in vitro pull-down with or without NaHCO3 (FIG. 4G, n=3)"}, "[2]": {"target": "T5, MPK12 (recombinant Arabidopsis MAP kinase MPK12)", "T5 chain": "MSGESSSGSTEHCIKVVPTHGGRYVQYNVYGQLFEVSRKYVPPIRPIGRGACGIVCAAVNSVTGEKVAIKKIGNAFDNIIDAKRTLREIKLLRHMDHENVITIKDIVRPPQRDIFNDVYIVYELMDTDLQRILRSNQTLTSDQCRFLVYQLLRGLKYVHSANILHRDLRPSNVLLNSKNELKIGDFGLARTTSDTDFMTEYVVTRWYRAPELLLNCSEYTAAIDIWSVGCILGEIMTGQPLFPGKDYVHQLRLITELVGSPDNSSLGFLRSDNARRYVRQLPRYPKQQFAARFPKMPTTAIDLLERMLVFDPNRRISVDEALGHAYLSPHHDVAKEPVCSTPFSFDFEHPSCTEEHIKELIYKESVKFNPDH"}, "[3]": {"system": "MPK4/12, HT1 and CBC1 recombinant proteins", "experiment": "in vitro phosphorylation assay: NaHCO3-dependent down-regulation of HT1-mediated CBC1 phosphorylation", "assay_type": "biochemical, Arabidopsis", "conditions": "isoform replaces wild type protein or is added; 20 mM NaHCO3 vs NaCl control, 30 min", "experimental": "We tested whether this HT1-mediated activation of CBC1 is inhibited by CO2/bicarbonate by adding NaHCO3 in in vitro phosphorylation reactions. […]\nFIG. 2. […] Histone was used as an artificial protein kinase substrate. • (B) MPK4, HT1 and CBC1 proteins were incubated with NaHCO3 at the indicated concentrations for 30 min, and in vitro phosphorylation assays were performed. • (C) CBC1 band intensities as shown in (B) were measured using IMAGEJ™, n=4 experiments, error bars show ±S.D. • (D) MPK4, HT1 and CBC1 proteins were incubated in reaction buffers adjusted at different pH (6.5 to 8.5) for 30 min, and in vitro phosphorylation assays were performed. • (E) CBC1 band intensities and the density-ratios of ‘+NaHCO3’ to ‘—NaHCO3’ (=+NaCl controls) for each pH condition\nFIG. 3. […] Ambient CO2 concentrations are indicated by the top bars. n=7 experiments, error bars show ±SEM. • (C) Recombinant HT1 (wild type, HT1-G89R or HT1-R173Q) and CBC1 proteins were incubated with MPK4 in the presence or absence of 20 mM NaHCO3 or 20 mM NaCl (−controls) for 30 min, and in vitro phosphorylation assays were performed. • (D) Recombinant MPK12, CBC1 and HT1 (WT or R102K) proteins were incubated with or without 20 mM NaHCO3 or 20 mM NaCl (−controls) for 30 min, and in vitro phosphorylation assays were performed. Histone was used as an artificial kinase substrate. • (E) HT1 (WT or A109V) proteins were used for in vitro phosphorylation assays. Proteins were incubated with or without 20 mM NaHCO3 or 20 mM NaCl (−controls) for 30 min. • (F) Stomatal conductances were analyzed using intact plants of Arabidopsis (Col-0 (WT), cbc1 cbc2, ht1-A109V and cbc1 cbc2 ht1-A109V). CO2 concentration changes were applied as indicated on top (p.p.m.). […]"}, "MPK4 and HT1": {"system": "MPK4 and HT1", "experiment": "in vitro pull-down assay, His-HT1 with GST-MPK4", "assay_type": "binding, Arabidopsis", "conditions": "pull-down with or without 20 mM NaHCO3", "experimental": "We therefore investigated a possible binding between MPK4 and HT1 and the effect of HCO3^−.\nFIG. 4. […] CO2 concentration changes were applied as indicated on top (p.p.m.). n=6 experiments, error bars show ±SEM. • (J) Model of plant stomatal CO2 sensor and signaling (see text).\nFIG. 6. […] Precipitated proteins were washed with buffers supplemented with NaHCO3 at the indicated concentrations (0, 2 or 20 mM). See FIG. 4d for an independent experiment. To control for effects of Na^+, 20 mM NaCl (0 mM NaHCO3) for lanes 1 and 4 were included in the buffers; and 18 mM NaCl (2 mM NaHCO3) for lane 3 were included in buffer."}},
  "data": [
    {"molecule": "GST-MPK4 (recombinant Arabidopsis MAP kinase MPK4 with GST tag) (enzyme, The tag is placed at the N-terminus only because of the printed name GST-MPK4; The phosphorylation assays say only 'MPK4' and name no tag; also called AtMPK4; AT4G01370; not shown: GST tag) MSAESCFGSSGDQSSSKGVATHGGSYVQYNVYGNLFEVSRKYVPPLRPIGRGAYGIVCAATNSETGEEVAIKKIGNAFDNIIDAKRTLREIKLLKHMDHENVIAVKDIIKPPQRENFNDVYIVYELMDTDLHQIIRSNQPLTDDHCRFFLYQLLRGLKYVHSANVLHRDLKPSNLLLNANCDLKLGDFGLARTKSETDFMTEYVVTRWYRAPELLLNCSEYTAAIDIWSVGCILGETMTREPLFPGKDYVHQLRLITELIGSPDDSSLGFLRSDNARRYVRQLPQYPRQNFAARFPNMSAGAVDLLEKMLVFDPSRRITVDEALCHPYLAPLHDINEEPVCVRPFNFDFEQPTLTEENIKELIYRETVKFNPQDSV", "values": [
      {"measurement": "CBC1 and histone phosphorylation in vitro (HT1 + CBC1 + MPK4, 20 mM NaHCO3; FIG. 2A, n>6)", "setting": "[1]", "result": "when MPK4 or MPK12 were added to the reaction, we found that the addition of NaHCO3, but not NaCl, inhibited both CBC1 phosphorylation and histone phosphorylation in vitro"},
      {"measurement": "binding result", "setting": "HT1-G89R", "result": "no binding"},
      {"measurement": "binding result", "setting": "HT1-R102K", "result": "no binding"},
      {"measurement": "binding result", "setting": "HT1-A109V", "result": "no binding"}
    ]},
    {"molecule": "HT1-R102K (protein) MSGLCFNPFRLRWSLRSKLPLEPSLPNLPCNPSSSKTNRYAEAETMEKKRFDSMESWSMILESENVETWEASKGEREEWTADLSQLFIGNKFASGAHSRIYKGIYKQRAVAVKMVRIPTHKEETRAKLEQQFKSEVALLSRLFHPNIVQFIAACKKPPVYCIITEYMSQGNLRMYLNKKEPYSLSIETVLRLALDISRGMEYLHSQGVIHRDLKSNNLLLNDEMRVKVADFGTSCLETQCREAKGNMGTYRWMAPEMIKEKPYTRKVDVYSFGIVLWELTTALLPFQGMTPVQAAFAVAEKNERPPLPASCQPALAHLIKRCWSENPSKRPDFSNIVAVLEKYDECVKEGLPLTSHASLTKTKKAILDHLKGCVTSISSPFSSSSVPVNA", "values": [
      {"measurement": "NaHCO3-triggered down-regulation of CBC1 phosphorylation and CBC1 activity, in vitro phosphorylation assay with MPK12 and CBC1 (FIG. 3D, n=3)", "setting": "[2]", "result": "both of these R102K and A109V mutations disrupt the NaHCO3-triggered down-regulation of CBC1 phosphorylation and CBC1 activity"},
      {"measurement": "NaHCO3-mediated down-regulation of CBC1 phosphorylation/activity with the protein isoform in the reaction", "setting": "[3]", "result": "disrupt the NaHCO3-triggered down-regulation of CBC1 phosphorylation and CBC1 activity"},
      {"measurement": "HCO3- dependent binding of HT1 isoform with MPK4", "setting": "MPK4 and HT1", "result": "did not show a bicarbonate-induced interaction of HT1 with MPK4"}
    ]},
    {"molecule": "HT1-A109V (protein) MSGLCFNPFRLRWSLRSKLPLEPSLPNLPCNPSSSKTNRYAEAETMEKKRFDSMESWSMILESENVETWEASKGEREEWTADLSQLFIGNKFASGAHSRIYRGIYKQRVVAVKMVRIPTHKEETRAKLEQQFKSEVALLSRLFHPNIVQFIAACKKPPVYCIITEYMSQGNLRMYLNKKEPYSLSIETVLRLALDISRGMEYLHSQGVIHRDLKSNNLLLNDEMRVKVADFGTSCLETQCREAKGNMGTYRWMAPEMIKEKPYTRKVDVYSFGIVLWELTTALLPFQGMTPVQAAFAVAEKNERPPLPASCQPALAHLIKRCWSENPSKRPDFSNIVAVLEKYDECVKEGLPLTSHASLTKTKKAILDHLKGCVTSISSPFSSSSVPVNA", "values": [
      {"measurement": "NaHCO3-triggered down-regulation of CBC1 phosphorylation and CBC1 activity, in vitro phosphorylation assay with MPK4/12 and CBC1 (FIG. 3E, n=4)", "setting": "MPK4/12", "result": "both of these R102K and A109V mutations disrupt the NaHCO3-triggered down-regulation of CBC1 phosphorylation and CBC1 activity"},
      {"measurement": "NaHCO3-mediated down-regulation of CBC1 phosphorylation/activity with the protein isoform in the reaction", "setting": "[3]", "result": "disrupt the NaHCO3-triggered down-regulation of CBC1 phosphorylation and CBC1 activity"},
      {"measurement": "HCO3- dependent binding of HT1 isoform with MPK4", "setting": "MPK4 and HT1", "result": "did not show a bicarbonate-induced interaction of HT1 with MPK4"}
    ]}
  ]
}
